Measurements published in patent US20250361274A1, “PEPTIDE AND PEPTIDE-CONTAINING AGENT” (PEPTIDREAM INC., priority 2022, published 2025).
Numbered stars: 1 amine (or outer) side, 2 acyl side, 3 side chain; on linkers, the order of the positions; unused ones are H or OH. Bridge positions count the residues as written; N and C are the ends. Square brackets hold non-standard residues; d marks the D form. Ends that are not written are not given here. KCOpipzaa = N6-(4-(carboxymethyl)piperazine-1-carbonyl)-L-lysine, O=C(NCCCC[C@H](N[*:1])C(=O)[*:2])N1CCN(CC(=O)[*:3])CC1; Bph3F = (S)-2-amino-3-(3'-fluoro-[1,1'-biphenyl]-4-yl)propanoic acid, O=C([C@H](Cc1ccc(-c2cccc(F)c2)cc1)N[*:1])[*:2]; 3Pal(6-Ph) = N[C@@H](Cc1ccc(-c2ccccc2)nc1)C(=O)O; Phe(4-COOH) = N[C@@H](Cc1ccc(C(=O)O)cc1)C(=O)O; NMePhe(4-Me) = CN[C@@H](Cc1ccc(C)cc1)C(=O)O; Bip = N[C@@H](Cc1ccc(-c2ccccc2)cc1)C(=O)O; Phe(4-F) = N[C@@H](Cc1ccc(F)cc1)C(=O)O; Phe(4-Me) = Cc1ccc(C[C@H](N)C(=O)O)cc1; Pro(4,4-F2) = O=C(O)[C@@H]1CC(F)(F)CN1; Hyp = O=C(O)[C@@H]1C[C@@H](O)CN1; NMeF = CN[C@@H](Cc1ccccc1)C(=O)O; hCit = NC(=O)NCCCC[C@H](N)C(=O)O; 4Pal = N[C@@H](Cc1ccncc1)C(=O)O; Cha = N[C@@H](CC1CCCCC1)C(=O)O; Cba = N[C@@H](CC1CCC1)C(=O)O; βAla = NCCC(=O)O

Experiments:
BMP4 = biological target: T1, BMP4 (Homo sapiens, UniProt P12644); assay: BMP4 signal transduction inhibitory activity: SMAD1 phosphorylation by BMP4 stimulus, AlphaLISA SureFire, A549 cells; type: cell-based; settings: for aLISA BMP4: A549 cells
T1 sequence (P12644 293-408): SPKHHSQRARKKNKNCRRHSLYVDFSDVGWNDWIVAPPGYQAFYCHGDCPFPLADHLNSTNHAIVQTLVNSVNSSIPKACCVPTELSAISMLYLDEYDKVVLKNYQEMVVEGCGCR
Method: In the present Example, a BMP4 signal transduction inhibitory activity of each peptide consisting of an amino acid sequence set forth in any of SEQ ID NOs: 5 to 240 and 243 to 421 synthesized in Example 10 was verified by phosphorylation of SMAD1 caused by BMP4 stimulus. A549 cells were cultured in MEM (Thermo Fisher Scientific) containing 10% FBS (Thermo Fisher Scientific), 1×Non-essential amino acids (Thermo Fisher Scientific), and 50 μg/mL Gentamicin. After TrypLE (Gibco) was used to peel the cells, seeding was performed in a 96-well plate for adhesion cells so that the number of cells would be 20,000 per well, followed by culturing for 48 hours. After the cells were cultured as described above, the culture medium was replaced with a peptide solution or recombinant Human Noggin Protein (R&D) solution as a positive control diluted to various concentrations in a nutrition-starved culture medium containing 0.1% BSA (Sigma) instead of FBS Thirty minutes after culturing, […], to stimulate it for 60 minutes. The culture medium was removed and the cells were lysed with Lysis Buffer provided with AlphaLISA (registered trademark) SureFire (registered trademark) Ultra SMAD1 (p-[…]/465) Assay kit (PerkinElmer). According to the protocol of the kit, a signal was detected using SpectraMax (registered trademark) Paradigm (registered trademark) multimode microplate reader (Molecular Devices). The obtained signal was analysed using GraphPad Prism (GraphPad Software). The % inhibition was calculated by considering non-stimulation as 100% inhibition and BMP stimulation only as 0% inhibition. Regarding SEQ ID NOs: 5 to 187, the concentrations of the peptides synthesized in the same manner as in Example 2 (shown as 2 in the row of Synthesis) were 0.02 nM, 0.2 nM, and 2 nM, and the concentrations of the peptides synthesized in the same manner as in Example 1 (shown as 1 in the row of Synthesis) were 0.2 nM, 2 nM, and 20 nM. The evaluation results were based on the results of evaluation using the peptides synthesized in the same manner as in Example 2. […] Regarding SEQ ID NOs: 243 to 321, the test was performed at the concentrations described in Table 6. […] Regarding SEQ ID NOs: 322 to 421, the test was performed at the concentrations described in Table 7. […] The evaluation tests of the signal transduction inhibitory activities of SEQ ID NOs: 87, 177, and 181 are as follows. Specifically, the inhibitory activity of BMP4 was evaluated in the same manner as in Example 11 that used A549 cells. Eight concentrations of the peptides were used at a common ratio of 1/3 starting from 2 nM. The inhibitory activity of BMP7 was evaluated in the same manner as in Example 12. Eight concentrations of the peptides were used at a common ratio of 1/3 starting from 100 nM. Note that recombinant Human Noggin Protein (R&D) as a positive control was used at the same concentration as that of the peptide. […] The inhibitory activity of BMP7 was evaluated using eight concentrations of the peptides at a common ratio of 1/3 starting from 1,000 nM in the same manner as in Example 12.

BMP7 = biological target: T2, BMP7 (Homo sapiens, UniProt P18075); assay: BMP7 signal transduction inhibitory activity: SMAD1 phosphorylation by BMP7 stimulus, A549 cells; type: cell-based; settings: for aLISA BMP7: A549 cells
T2 sequence (P18075 293-431): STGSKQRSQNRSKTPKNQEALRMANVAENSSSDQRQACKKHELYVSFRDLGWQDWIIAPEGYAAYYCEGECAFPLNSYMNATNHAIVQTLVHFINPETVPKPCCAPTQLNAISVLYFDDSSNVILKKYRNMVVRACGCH
Method: In the present Example, BMP7 signal transduction inhibitory activity of each peptide consisting of an amino acid sequence set forth in any of SEQ ID NOs: 5 to 240 and 243 to 421 synthesized in Example 10 was verified by phosphorylation of SMAD1 caused by BMP7 stimulus. The evaluation was performed using 10 nM of BMP7 instead of BMP 4. Regarding SEQ ID NOs: 5 to 240, the concentrations of the peptides synthesized in the same manner as in Example 2 (shown as 2 in the row of Synthesis) were 1 nM, 10 nM, and 100 nM, and the concentrations of the peptides synthesized in the same manner as in Example 1 (shown as 1 in the row of Synthesis) were 10 nM, 100 nM, and 1,000 nM, similarly with Example 11. […] Regarding SEQ ID NOs: 243 to 273 and SEQ ID NOs: 299 to 321, the test was performed at the concentrations (10, 100, 1,000 nM) described in Table 6. […] Regarding SEQ ID NOs: 274 to 298, the test was performed at the concentrations (100, 300, 1,000 nM) described in Table 6. […] Regarding SEQ ID NOs: 322 to 370 and SEQ ID NOs: 393 to 421, the test was performed at the concentrations (1, 10, 100 nM). […] Regarding SEQ ID NOs: 371 to 391, the test was performed at the concentrations (10, 30, 90 nM). […] The evaluation tests of the signal transduction inhibitory activities of SEQ ID NOs: 87, 177, and 181 are as follows. Specifically, the inhibitory activity of BMP4 was evaluated in the same manner as in Example 11 that used A549 cells. Eight concentrations of the peptides were used at a common ratio of 1/3 starting from 2 nM. The inhibitory activity of BMP7 was evaluated in the same manner as in Example 12. Eight concentrations of the peptides were used at a common ratio of 1/3 starting from 100 nM. Note that recombinant Human Noggin Protein (R&D) as a positive control was used at the same concentration as that of the peptide. […] The inhibitory activity of BMP7 was evaluated using eight concentrations of the peptides at a common ratio of 1/3 starting from 1,000 nM in the same manner as in Example 12.

[1] = inhibition of SMAD1 phosphorylation by BMP4 stimulus, peptides of Synthesis 2, classes A-C, ND
[2] = inhibition of SMAD1 phosphorylation by BMP7 stimulus, peptides of Synthesis 2, classes A-D, ND
[3] = BMP4 0.2 nM stimulus, peptide conc. in assay 2, 20, 200 nM
[4] = BMP7 10 nM stimulus, peptide conc. in assay 10, 30, 90 nM

## 253 (ERVYVSR[3Pal(6-Ph)]SYV[Bip][4Pal][Phe(4-COOH)][Phe(4-COOH)]SCG-NH2; not fully specified) [compound 253]
BMP4; SMAD1 phosphorylation by BMP4 stimulus, peptide conc. in assay 0.02, 0.2, 2 nM, class symbols
  aLIZA BMP4 (0.2 nM) % Inh: C (showed less than 30% of inhibitory activity in 0.2 nM-addition zone and showed 30% or more of inhibitory activity in 2 nM-addition zone)
BMP7; SMAD1 phosphorylation by BMP7 stimulus, peptide conc. in assay 10, 100, 1000 nM, class symbols
  aLIZA BMP7 (10 nM) % Inh: ND (the inhibitory activity was less than 30% at the maximum concentration evaluated)

## 118 (EKVYVKRFPYPFYFFSCAE; not fully specified; MOD_RES 2 K represents N6-(4-(Carboxymethyl) piperazine-1-carbonyl)-L-lysine(KCOpipzaa); MOD_RES 6 K represents N6-(4-(Carboxymethyl) piperazine-1-carbonyl)-L-lysine(KCOpipzaa); MOD_RES 8 F represents (S)-3-(1,1'-Biphenyl-4-yl)-2-aminopropanoic acid(Bph); MOD_RES 12 F represents (S)-3-(1,1'-Biphenyl-4-yl)-2-aminopropanoic acid(Bph); MOD_RES 14 F represents (S)-4-(2-amino-2-carboxyethyl)benzoic aci) [compound 118]
BMP4; [1]
  aLISA BMP4: A (showed an inhibitory activity of 50% or more in a zone to which the peptide was added to in an amount of 0.2 nM)
BMP7; [2]
  aLISA BMP7: C (showed less than 50% of inhibitory activity in 10 nM-addition zone and showed 50% or more of inhibitory activity in 100 nM-addition zone)

## 39 ({CH2CO}-AQVYVDK[Bip]PYP[Bip]Y[Phe(4-COOH)][Phe(4-COOH)]SCG-NH2; thioether N-17; not fully specified) [compound 39]
BMP4; SMAD1 phosphorylation, peptides of Synthesis 2, peptide 0.02, 0.2, 2 nM
  aLISA BMP4: C (showed an inhibitory activity of less than 50% in 0.2 nM-addition zone and showed an inhibitory activity of 50% or more in 2 nM-addition zone were defined as B or C)
BMP7; 10 nM BMP7, peptides of Synthesis 2, peptide 1, 10, 100 nM
  aLISA BMP7: ND (the inhibitory activity was less than 30% at the maximum concentration evaluated)

## 313 (ERV[Phe(4-COOH)][Cba][KCOpipzaa]R[3Pal(6-Ph)][KCOpipzaa]Y[Hyp][Bph3F]Y[Phe(4-COOH)][Phe(4-COOH)]SCG-NH2; not fully specified) [compound 313]
BMP4; BMP4 0.2 nM, peptide 0.02, 0.2, 2 nM, Table 6
  aLIZA BMP4 (0.2 nM) % inh: A (showed 30% or more of inhibitory activity in a zone to which the peptide was added in an amount of 0.02 nM)
BMP7; BMP7 10 nM, peptide 10, 100, 1000 nM, Table 6
  aLIZA BMP7 (10 nM) % inh: E (showed less than 30% of inhibitory activity in 100 nM-addition zone and showed 30% or more of inhibitory activity in 1,000 nM-addition zone)

## 286 (ERV[Phe(4-COOH)]VDR[3Pal(6-Ph)][KCOpipzaa]Y[Hyp][Bip][4Pal][Phe(4-COOH)][Phe(4-COOH)]SC[βAla][dE]-OH; not fully specified (N-terminus, bridges); also: cyclic peptide, ring not given here) [compound 286]
BMP4; BMP4 0.2 nM stimulus, peptide conc. in assay 0.02, 0.2, 2 nM, class symbols
  aLIZA BMP4 (0.2 nM) % inh: B (showed less than 30% of inhibitory activity in 0.02 nM-addition zone and showed 30% or more of inhibitory activity in 0.2 nM-addition zone)
BMP7; BMP7 10 nM stimulus, peptide conc. in assay 100, 300, 1000 nM, class symbols
  aLIZA BMP7 (10 nM) % inh: G (showed less than 30% of inhibitory activity in 100 nM-addition zone and showed 30% or more of inhibitory activity in 300 nM-addition zone)

## 378 (FG[NMeF]G[Phe(4-F)]GDD[Cha]A[NMeF]LHCG-NH2; not fully specified) [compound 378]
BMP4; [3]
  aLISA BMP4 (0.2 nM) % inh: ND (the inhibitory activity was less than 30% at the maximum concentration evaluated)
BMP7; [4]
  aLISA BMP7 (10 nM) % inh: F (showed less than 30% of inhibitory activity in 10 nM-addition zone and showed 30% or more of inhibitory activity in 30 nM-addition zone)

## 145 ({CH2CO}-ERVYVDR[Bip]PY[hCit][Bip]Y[Phe(4-COOH)][Phe(4-COOH)]SCG-NH2; thioether N-17; not fully specified) [compound 145]
BMP4; inhibition of SMAD1 phosphorylation by BMP4 stimulus, peptides of Synthesis 1, classes D-F, ND
  aLISA BMP4: D (showed 50% or more of inhibitory activity in 0.2 nM-addition zone)
BMP7; inhibition of SMAD1 phosphorylation by BMP7 stimulus, peptides of Synthesis 1, classes E, F, ND
  aLISA BMP7: E (showed 50% or more of inhibitory activity in a zone to which the peptide was added in an amount of 10 nM)

## 382 (FG[NMeF]G[Phe(4-Me)]GDD[Cha]A[NMeF]LHCG-NH2; not fully specified) [compound 382]
BMP4; [3]
  aLISA BMP4 (0.2 nM) % inh: ND (the inhibitory activity was less than 30% at the maximum concentration evaluated)
BMP7; [4]
  aLISA BMP7 (10 nM) % inh: G (showed less than 30% of inhibitory activity in 30 nM-addition zone and showed 30% or more of inhibitory activity in 90 nM-addition zone)

## 397 (FG[NMePhe(4-Me)]G[Bip]GDD[Cha]A[NMePhe(4-Me)]LHCG-NH2; not fully specified) [compound 397]
BMP4; BMP4 0.2 nM stimulus, peptide conc. in assay 0.2, 2, 20 nM
  aLISA BMP4 (0.2 nM) % inh: ND (the inhibitory activity was less than 30% at the maximum concentration evaluated)
BMP7; BMP7 10 nM stimulus, peptide conc. in assay 1, 10, 100 nM
  aLISA BMP7 (10 nM) % inh: D (showed less than 30% of inhibitory activity in 10 nM-addition zone and showed 30% or more of inhibitory activity in 100 nM-addition zone)

## 111 ({CH2CO}-ERVYVDR[Bip]PY[Pro(4,4-F2)][Bip]Y[Phe(4-COOH)][Phe(4-COOH)]SC[βAla][dE]-OH; thioether N-17; not fully specified) [compound 111]
BMP4; [1]
  aLISA BMP4: A (showed an inhibitory activity of 50% or more in a zone to which the peptide was added to in an amount of 0.2 nM)
BMP7; [2]
  aLISA BMP7: C (showed less than 50% of inhibitory activity in 10 nM-addition zone and showed 50% or more of inhibitory activity in 100 nM-addition zone)
